According to patent US20250186614A1, “COMPACT DRUG RESPONSIVE DOMAINS FOR REGULATION OF FUNCTION/ABUNDANCE AND DELIVERY OF POLYPEPTIDE PAYLOADS” (OBSIDIAN THERAPEUTICS, INC., priority 2022, published 2025):
Read-outs that look alike come from different tables or passages of the source.

Assay: Example 4: dose response of FKBP constructs 160-255, Ec50, Ec90 and fold change (raw and normalized to mCherry)
Format: cell-based
Conditions: for FC (fold change): fold change during initial analysis
Description: Additional experiments were performed for constructs FKBP-160-292.

[1] = FKBP constructs 160-255, not normalized, read-out: EC90
[2] = normalized to mCherry, read-out: EC90 (Norm)

B1: FKBP-241 (protein)
chain: HCPIKSRKGDVLHAHYTGKLYDGTEFDSSLPRNQPFVFSLGTGERIKGWDQGLLGMCEGEKRKLVIPSELGYGERGWPPKIPGGATLVFEVELLKIER
modifications: Description of sequence: Construct Name: FKBP-241; Mutation(s): Q72R Q84E A117W V85R DRD E61Y M54A
With B1 the EC90 [1] was 221 nM, the “FC (fold change)” value was 43.9 and the EC90 [2] was 222 nM.

B2: FKBP-243: FKBP13 DRD-AcGFP construct of Table 10 (protein)
chain: HCPIKSRKGDVLHMHYTGKLEDGTEFDSSLPRNQPFVFSLGTGERIKGWDQGLLGMCEGEKRKLVIPSELGYGERGWSPKIPGGATLVFEVELLKIER
modifications: Description of sequence: Construct Name: FKBP-243; Mutation(s): Q72R Q84E A117W V85R DRD P118S
In the case of B2, the EC90 [1] is reported as 125 nM, the “FC (fold change)” value is reported as 37.1 and the EC90 [2] is reported as 127 nM.

B3: FKBP-173 (protein)
chain: HCPIKSRKGDVLHAHYTGKLEDGTEFDSSLPRNQPFVFSLGTGEVIKGWDQGLLGMCEGEKRKLVIPSELGYGERGWPPKIPGGATLVFEVEGLKIER
modifications: Description of sequence: Construct Name: FKBP-173; Mutation(s): Q72R Q84E A117W DRD M54A L133G
In the case of B3, the “FC (fold change)” value is reported as 4.

B4: FKBP-244: FKBP13 DRD-AcGFP construct of Table 10 (protein)
chain: HCPIKSRKGDVLHAHYTGKLEDGTEFDSSLPRNQPFVFSLGTGERIKGWDQGLLGMCEGEKRKLVIPSELGYGERGWSPKIPGGATLVFEVELLKIER
modifications: Description of sequence: Construct Name: FKBP-244; Mutation(s): Q72R Q84E A117W V85R DRD P118S M54A
In the case of B4, the EC90 [1] is reported as 307 nM, the “FC (fold change)” value is reported as 51.2 and the EC90 [2] is reported as 328 nM.

B5: FKBP-253 (protein)
chain: HCPIKSRKGDVLHMHYTGKLEDGTEFDSSLPRNQPFVFSLGTGERIKGWDQGLLGMCEGEKRKLVIPSELGYGERGWPPKIPGGATLVFEVELLKPER
modifications: Description of sequence: Construct Name: FKBP-253; Mutation(s): Q72R Q84E A117W V85R DRD I136P
In the case of B5, the “FC (fold change)” value is reported as 2.3.

B6: FKBP-248 (protein)
chain: HCPIKSRKGDVLHMHYTGKLEDGTEFDDSLPRNQPFVFSLGTGEVIKGWDQGLLGMCEGEKRKLVIPSELGYGERGWPPKIPGGATLVFEVELLKIER
modifications: Description of sequence: Construct Name: FKBP-248; Mutation(s): Q72R Q84E A117W DRD S68D
With B6 the EC90 [1] was 1800 nM, the “FC (fold change)” value was 50.1 and the EC90 [2] was 1880 nM.

B7: FKBP-242 (protein)
chain: HCPIKSRKGDVLHMHYTGKLEDGTEFDSSLPRNQPFVFSLGTGEVIKGWDQGLLGMCEGEKRKLVIPSELGYGERGWSPKIPGGATLVFEVELLKIER
modifications: Description of sequence: Construct Name: FKBP-242; Mutation(s): Q72R Q84E A117W DRD P118S
For B7, the EC90 [1] was 466 nM, the “FC (fold change)” value was 24.4 and the EC90 [2] was 539 nM.

B8: FKBP-250 (protein)
chain: HCPIKSRKGDVLHMHYTGKLEDGTEFDSSLPRNQPFVFSLGTGEVIKGWDQGLLGMCEGEKRKLVIPSELGYGERGWPPKIPGGATLVFFVELLKIER
modifications: Description of sequence: Construct Name: FKBP-250; Mutation(s): Q72R Q84E A117W DRD E130F
For B8, the EC90 [1] was 101 nM, the “FC (fold change)” value was 22.0 and the EC90 [2] was 114 nM.

B9: FKBP-249 (protein)
chain: HCPIKSRKGDVLHMHYTGKLEDGTEFDDSLPRNQPFVFSLGTGERIKGWDQGLLGMCEGEKRKLVIPSELGYGERGWPPKIPGGATLVFEVELLKIER
modifications: Description of sequence: Construct Name: FKBP-249; Mutation(s): Q72R Q84E A117W V85R DRD S68D
With B9 the EC90 [1] was 472 nM, the “FC (fold change)” value was 33.7 and the EC90 [2] was 494 nM.

B10: FKBP-247 (protein)
chain: HCPIKSRKGDVLHAHYTGKLEDGTEFDSHLPRNQPFVFSLGTGERIKGWDQGLLGMCEGEKRKLVIPSELGYGERGWPPKIPGGATLVFEVELLKIER
modifications: Description of sequence: Construct Name: FKBP-247; Mutation(s): Q72R Q84E A117W V85R DRD S69H M54A
In the case of B10, the EC90 [1] is reported as 2810 nM, the “FC (fold change)” value is reported as 35.0 and the EC90 [2] is reported as 2950 nM.

B11: FKBP-246 (protein)
chain: HCPIKSRKGDVLHMHYTGKLEDGTEFDSHLPRNQPFVFSLGTGERIKGWDQGLLGMCEGEKRKLVIPSELGYGERGWPPKIPGGATLVFEVELLKIER
modifications: Description of sequence: Construct Name: FKBP-246; Mutation(s): Q72R Q84E A117W V85R DRD S69H
For B11, the EC90 [1] was 1530 nM, the “FC (fold change)” value was 30.4 and the EC90 [2] was 1520 nM.

B12: FKBP-245 (protein)
chain: HCPIKSRKGDVLHMHYTGKLEDGTEFDSHLPRNQPFVFSLGTGEVIKGWDQGLLGMCEGEKRKLVIPSELGYGERGWPPKIPGGATLVFEVELLKIER
modifications: Description of sequence: Construct Name: FKBP-245; Mutation(s): Q72R Q84E A117W DRD S69H
For B12, the EC90 [1] was 5830 nM, the “FC (fold change)” value was 40.6 and the EC90 [2] was 5870 nM.

B13: FKBP-254 (protein)
chain: HCPIKSRKGDVLHMHYTGKLEDGTEFDSSLPRNQPFVFSLGTGEVIKGWDQGLLGMCEREKRKLVIPSELGYGERGWPPKIPGGATLVFEVELLKIER
modifications: Description of sequence: Construct Name: FKBP-254; Mutation(s): Q72R Q84E A117W DRD G99R
For B13, the EC90 [1] was 369 nM, the “FC (fold change)” value was 35.6 and the EC90 [2] was 373 nM.

B14: FKBP-255: FKBP13 DRD-AcGFP construct of Table 10 (protein)
chain: HCPIKSRKGDVLHMHYTGKLEDGTEFDSSLPRNQPFVFSLGTGERIKGWDQGLLGMCEREKRKLVIPSELGYGERGWPPKIPGGATLVFEVELLKIER
modifications: Description of sequence: Construct Name: FKBP-255; Mutation(s): Q72R Q84E A117W V85R DRD G99R
With B14 the EC90 [1] was 101 nM, the “FC (fold change)” value was 33.0 and the EC90 [2] was 101 nM.

B15: FKBP-252 (protein)
chain: HCPIKSRKGDVLHMHYTGKLEDGTEFDSSLPRNQPFVFSLGTGEVIKGWDQGLLGMCEGEKRKLVIPSELGYGERGWPPKIPGGATLVFEVELLKPER
modifications: Description of sequence: Construct Name: FKBP-252; Mutation(s): Q72R Q84E A117W DRD I136P
For B15, the “FC (fold change)” value was 1.3.
